Data from patent US20240124593A1.
pKd: −log10 of the molar value.

Biological target: human FcRn (human) (UniProt P55899)
Experiment: SPR Biacore 3000, antibody immobilised on CM5, hFcRn analyte, pH 7.5, 25 C, 1:1 fit

Sequence of human FcRn (human) (P55899 24-297 limits assumed, chain 1 of 2): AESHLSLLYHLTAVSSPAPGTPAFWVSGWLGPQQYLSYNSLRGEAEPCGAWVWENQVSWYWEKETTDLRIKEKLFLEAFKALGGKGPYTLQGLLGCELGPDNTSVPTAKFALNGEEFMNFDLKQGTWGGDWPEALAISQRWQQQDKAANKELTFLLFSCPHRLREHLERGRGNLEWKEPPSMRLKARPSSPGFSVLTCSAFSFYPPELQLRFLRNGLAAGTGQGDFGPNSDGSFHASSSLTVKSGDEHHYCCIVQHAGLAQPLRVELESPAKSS
Sequence of human FcRn (human) (b2m, as listed by the source limits assumed, chain 2 of 2): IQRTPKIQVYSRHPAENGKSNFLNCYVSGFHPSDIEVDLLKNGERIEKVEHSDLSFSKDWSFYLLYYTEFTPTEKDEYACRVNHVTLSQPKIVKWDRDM

## DX-2504 (antibody)
  pKd: 8.72
